Data reported in patent US20070086998A1 (GPC BIOTECH, published 2007).

Experiments:
[1] = target: T1, human MHC class II DR protein (DRA*0101/DRB1*0401), purified (human, UniProt P01903 26-254; P01911 30-266, limits assumed); assay: not stated (Z. A. Nagy, unpublished)
T1 construct: mature; Detergent-solubilised protein purified from PRIESS cell lysate on an LB3.1 column; also called HLA-DR protein
T1 MHC II alpha: not shown
T1 MHC II beta: not shown

[2] = target: T2, chimeric DR-IE (human-mouse chimeric MHC class II molecule) (human; murine); assay: cell-based or functional assay
[3] = target: T3, HLA-DR on PRIESS cells (DRA*0101/DRB1*0401) (human, UniProt P01903 26-254; P01911 30-266); assay: cell-based or functional assay
T3 MHC II alpha: not shown
T3 MHC II beta: not shown

HLA-DR on LG-2 cells [4] = target: HLA-DR on LG-2 cells (human); assay: cell-based or functional assay
[5] = target: T3, HLA-DR on PRIESS cells …; assay: cell-based or functional assay
HLA-DR on LG-2 cells [6] = target: HLA-DR on LG-2 cells (human); assay: cell-based or functional assay; remark: listed apart in the source
[7] = target: T2, chimeric DR-IE (human-mouse chimeric …); assay: cell-based or functional assay; remark: listed apart in the source
[8] = target: T3, HLA-DR on PRIESS cells …; assay: cell-based or functional assay

B1: L243 (antibody, V domains shown)
VH: QIQLVQSGPELKKPGETVKISCKASGFTFTNYGMNWVKQAPGKGLKWMGWINTYTREPTYADDFKGRFAFSLETSASTAYLQINNLKNEDTAKYFCARDITAVVPTGFDYWGQGTTLTVSS
VL: DIQMTQSPASLSVSVGETVTITCRASENIYSNLAWYRQKQGKSPQLLVFAASNLADGVPSRFSGSGSGTQYSLKINSLQSEDFGDYYCQHFWTTPWAFGGGTNLEIK
- Kd [1]: 10 nM

B2: MS-GPC-8-27-41 (IgG4 form) (antibody, V domains shown)
VH: QVELKESGPALVKPTQTLTLTCTFSGFSLSTSGVGVGWIRQPPGKALEWLALIDWDDDKYYSTSLKTRLTISKDTSKNQVVLTMTNMDPVDTATYYCARSPRYRGAFDYWGQGTLVTVSS
VL: DIVLTQPPSVSGAPGQRVTISCSGSESNIGNNYVQWYQQLPGTAPKLLIYDNNQRPSGVPDRFSGSKSGTSASLAITGLQSEDEADYYCQSYDMNVHVFGGGTKLTVLG
- IC50 value for inhibition of T cell proliferation (lymph node cells of chimeric 0401-IE transgenic mice, ovalbumin) [2]: 20 nM
- % Killing by mAb; PRIESS (DR 4,4); 50 nM, 4 h [3]: 88%
- % Killing by mAb; LG-2 (DR 1,1); 50 nM, 4 h (HLA-DR on LG-2 cells [4]): 87%
- EC50 of cell killing for bivalent agent; PRIESS; IgG4 [5]: 1.1 nM
- EC50 of cell killing for bivalent agent; LG2; IgG4 (HLA-DR on LG-2 cells [6]): 1.23 nM
- IC50, IL-2 secretion of T-Hyb 1 cells stimulated by 0401-IE transgenic APC; IgG [7]: 0.28 nM
- Maximum inhibition(%), IL-2 secretion of T-Hyb 1 cells; IgG [7]: 100%

B3: MS-GPC-8-Fab (Fab, V domains shown)
VH: QVQLKESGPALVKPTQTLTLTCTFSGFSLSTSGVGVGWIRQPPGKALEWLALIDWDDDKYYSTSLKTRLTISKDTSKNQVVLTMTNMDPVDTATYYCARSPRYRGAFDYWGQGTLVTVSS
VL: DIVLTQPPSVSGAPGQRVTISCSGSSSNIGSNYVSWYQQLPGTAPKLLIYDNNQRPSGVPDRFSGSKSGTSASLAITGLQSEDEADYYCQSYDMPQAVFGGGTKLTVLG
- maximum killing capacity against PRIESS cells, cross-linked bivalent fragment [8]: 84%
- EC50 of cell killing for bivalent agent; PRIESS; Fab cross-linked with anti-FLAG M2 [5]: 31 nM
- IC50, IL-2 secretion of T-Hyb 1 cells stimulated by 0401-IE transgenic APC; Fab [7]: 110 nM (Fab concentration/2)
- Maximum inhibition(%), IL-2 secretion of T-Hyb 1 cells; Fab [7]: 100%
